Laboratory results taken from patent publication US20090042805.

Columns and labels:
Ac-VDVAD-cho = biological target: T1, Ac-VDVAD-cho
T1 chain: VDVAD

Z-VDVAD-FMK = biological target: T2, Z-VDVAD-FMK
T2 chain: VDVAD

B1: Human recombinant caspase-2 (protein)
chain: GPVCLQVKPCTPEFYQTHFQLAYRLQSRPRGLALVLSNVHFTGEKELEFRSGGDVDHSTLVTLFKLLGYDVHVLCDQTAQEMQEKLQNFAQLPAHRVTDSCIVALLSHGVEGAIYGVDGKLLQLQEVFQLFDNANCPSLQNKPKMFFIQACRGDETDRGVDQQDGKNHAGSPGCEESDAGKEKLPKMRLPTRSDMICGYACLKGTAAMRNTKRGSWYIEALAQVFSERACDMHVADMLVKVNALIKDREGYAPGTEFHRCKEMSEYCSTLCRHLYLFPGHPPT
in vitro VDVAD-AMC cleavage by recombinant caspase-2 (Ac-VDVAD-cho): as efficiently as commercially available caspase-2 reversible (Ac-VDVAD-Cho) or irreversible (Z-VDVAD-FMK) inhibitors | in vitro VDVAD-AMC cleavage by recombinant caspase-2 (SEQ8): is blocked by SEQ8 | in vitro VDVAD-AMC cleavage by recombinant caspase-2 (Z-VDVAD-FMK): as efficiently as commercially available caspase-2 reversible (Ac-VDVAD-Cho) or irreversible (Z-VDVAD-FMK) inhibitors
